Assay results reported in article PMC7909837, “Function and Regulation of Chloroplast Peroxiredoxin IIE” (Antioxidants, 2021).

Target: T1, 14-3-3 υ protein, recombinant (A. thaliana, UniProt P42645 1-268)
T1 construct: 14-3-3 υ, A. thaliana, AT5G16050; construct and tags not described
T1 sequence (looked up): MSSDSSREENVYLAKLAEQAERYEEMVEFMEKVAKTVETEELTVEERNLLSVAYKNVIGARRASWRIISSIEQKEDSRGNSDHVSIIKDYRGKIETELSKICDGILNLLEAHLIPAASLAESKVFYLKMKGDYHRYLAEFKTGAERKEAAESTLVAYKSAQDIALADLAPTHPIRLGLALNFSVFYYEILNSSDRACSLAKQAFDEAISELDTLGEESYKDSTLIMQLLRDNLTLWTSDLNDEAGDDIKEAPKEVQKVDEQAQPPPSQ
Experiment: far-Western, overlay or dot blot; dilution series of recombinant 14-3-3 υ spotted on nitrocellulose; incubated with PRX-IIE or its phospho-mimicry variants in TBS with either 1 mM DTT or 100 µM H2O2 overnight at 4 °C; detected with anti-PRX-IIE antibody; spots quantified with ImageJ
Conditions: both partners purified

B1: Peroxiredoxin IIE (PRX-IIE), wild type, His6-tagged recombinant (enzyme, A. thaliana, UniProt Q949U7 71-234, looked up)
chain: ASISVGDKLPDSTLSYLDPSTGDVKTVTVSSLTAGKKTILFAVPGAFTPTCSQKHVPGFVSKAGELRSKGIDVIACISVNDAFVMEAWRKDLGINDEVMLLSDGNGEFTGKLGVELDLRDKPVGLGVRSRRYAILADDGVVKVLNLEEGGAFTNSSAEDMLKAL
notes: Peroxiredoxin IIE, A. thaliana, AT3G52960, cloned into pET28a (NdeI/BamHI); also called PRX-IIE WT; WT PRX-IIE; source: E. coli BL21 (DE3)pLysS, purified (Ni-NTA, dialysis)
- fold improvement of binding under oxidizing conditions (100 µM H2O2) against the other conditions: 2.5 fold
